# PMC9672952
# Experiments:
# [1] = target: EfmRseP with the triple alanine substitution of the HExxH motif (Enterococcus faecium P21) (UniProt I3U2R6)
# [2] = target: EfmRseP with substitution P369A (Enterococcus faecium P21) (UniProt I3U2R6)
# [3] = target: Fusion of LpRseP (1–171, 222–425) and EfmRseP (172–221) (Lactiplantibacillus plantarum WCFS1 | Enterococcus faecium P21) (UniProt I3U2R6)
# [4] = target: Fusion of EfmRseP (1–200) and LpRseP (201–425) (Enterococcus faecium P21 | Lactiplantibacillus plantarum WCFS1) (UniProt I3U2R6)
# [5] = target: RseP from Lactiplantibacillus plantarum WCFS1, C-terminal 6× His-tag (Lactiplantibacillus plantarum WCFS1)
# [6] = target: Fusion of LpRseP (1–221) and EfmRseP (222–422) (Lactiplantibacillus plantarum WCFS1 | Enterococcus faecium P21) (UniProt I3U2R6)
# [7] = target: Fusion of EfmRseP (1–170) and LpRseP (171–425) (Enterococcus faecium P21 | Lactiplantibacillus plantarum WCFS1) (UniProt I3U2R6)
# [8] = target: Fusion of EfmRseP (1–221) and LpRseP (222–425) (Enterococcus faecium P21 | Lactiplantibacillus plantarum WCFS1) (UniProt I3U2R6)
# [9] = target: RseP from Enterococcus faecium P21, C-terminal 6× His-tag (Enterococcus faecium P21) (UniProt I3U2R6)
# [10] = target: EfmRseP with substitution H18A (Enterococcus faecium P21) (UniProt I3U2R6)
# [11] = target: EfmRseP with substitution P367A (Enterococcus faecium P21) (UniProt I3U2R6)
# [12] = target: Fusion of LpRseP (1–201, 328–425) and EfmRseP (202–327) (Lactiplantibacillus plantarum WCFS1 | Enterococcus faecium P21) (UniProt I3U2R6)
# [13] = target: Fusion of LpRseP (1–201, 222–425) and EfmRseP (202–221) (Lactiplantibacillus plantarum WCFS1 | Enterococcus faecium P21) (UniProt I3U2R6)
# [14] = target: Fusion of EfmRseP (1–325) and LpRseP (326–425) (Enterococcus faecium P21 | Lactiplantibacillus plantarum WCFS1) (UniProt I3U2R6)
# [15] = target: EfmRseP with substitution E19A (Enterococcus faecium P21) (UniProt I3U2R6)
# [16] = target: Fusion of LpRseP (1–171, 326–425) and EfmRseP (172–325) (Lactiplantibacillus plantarum WCFS1 | Enterococcus faecium P21) (UniProt I3U2R6)
# [17] = target: EfmRseP with substitution D372A (Enterococcus faecium P21) (UniProt I3U2R6)
# [18] = target: Fusion of EfmRseP (1–32) and LpRseP (33–425) (Enterococcus faecium P21 | Lactiplantibacillus plantarum WCFS1) (UniProt I3U2R6)
# [19] = target: EfmRseP with substitution H22A (Enterococcus faecium P21) (UniProt I3U2R6)
# [20] = target: EfmRseP with substitution N359A (Enterococcus faecium P21) (UniProt I3U2R6)
# [21] = target: Truncation of EfmRseP (1–39, 139–422) Δ40–138 (Enterococcus faecium P21) (UniProt I3U2R6)
# [22] = target: Fusion of LpRseP (1–328) and EfmRseP (329–422) (Lactiplantibacillus plantarum WCFS1 | Enterococcus faecium P21) (UniProt I3U2R6)
# [23] = target: EfmRseP with substitution N364A (Enterococcus faecium P21) (UniProt I3U2R6)
# [24] = target: RseP from Enterococcus faecalis V583, without His-tag (Enterococcus faecalis V583) (UniProt Q9RPP2)
# [25] = target: RseP from Lactococcus lactis IL1403, without His-tag (Lactococcus lactis IL1403)
# [26] = target: RseP from Staphylococcus arlettae LMGT 4134, without His-tag (Staphylococcus arlettae LMGT 4134)
# [27] = target: RseP from Staphylococcus aureus ATCC 14458, without His-tag (Staphylococcus aureus ATCC 14458)
# [28] = target: RseP from Lactiplantibacillus plantarum WCFS1, without His-tag (Lactiplantibacillus plantarum WCFS1)
# [29] = target: RseP from Staphylococcus haemolyticus, without His-tag (Staphylococcus haemolyticus)
# [30] = target: RseP from Enterococcus faecium P21, without His-tag (Enterococcus faecium P21) (UniProt I3U2R6)
substance,measurement,setting,value
Enterocin K1 (peptide),"MIC50 of EntK1 (growth inhibition, microtiter plate) towards L. plantarum expressing this RseP variant",[1],2.7 µM
same,"MIC50 of EntK1 (growth inhibition, microtiter plate) towards L. plantarum expressing this RseP variant",[2],< 0.02 µM
same,"MIC50 of EntK1 (growth inhibition, microtiter plate) towards L. plantarum expressing this RseP variant",[3],> 22 µM
same,"MIC50 of EntK1 (growth inhibition, microtiter plate) towards L. plantarum expressing this RseP variant",[4],> 22 µM
same,"MIC50 of EntK1 (growth inhibition, microtiter plate) towards L. plantarum expressing this RseP variant",[5],> 22 µM
same,"MIC50 of EntK1 (growth inhibition, microtiter plate) towards L. plantarum expressing this RseP variant",[6],> 22 µM
same,"MIC50 of EntK1 (growth inhibition, microtiter plate) towards L. plantarum expressing this RseP variant",[7],> 22 µM
same,"MIC50 of EntK1 (growth inhibition, microtiter plate) towards L. plantarum expressing this RseP variant",[8],0.7 µM
same,"MIC50 of EntK1 (growth inhibition, microtiter plate) towards L. plantarum expressing this RseP variant",[9],< 2 nM
same,"MIC50 of EntK1 (growth inhibition, microtiter plate) towards L. plantarum expressing this RseP variant",[10],0.02 µM
same,"MIC50 of EntK1 (growth inhibition, microtiter plate) towards L. plantarum expressing this RseP variant",[11],4 nM
same,"MIC50 of EntK1 (growth inhibition, microtiter plate) towards L. plantarum expressing this RseP variant",[12],0.09 µM
same,"MIC50 of EntK1 (growth inhibition, microtiter plate) towards L. plantarum expressing this RseP variant",[13],> 22 µM
same,"MIC50 of EntK1 (growth inhibition, microtiter plate) towards L. plantarum expressing this RseP variant",[14],< 2 nM
same,"MIC50 of EntK1 (growth inhibition, microtiter plate) towards L. plantarum expressing this RseP variant",[15],0.01 µM
same,"MIC50 of EntK1 (growth inhibition, microtiter plate) towards L. plantarum expressing this RseP variant",[16],< 2 nM
same,"MIC50 of EntK1 (growth inhibition, microtiter plate) towards L. plantarum expressing this RseP variant",[17],0.7 µM
same,"MIC50 of EntK1 (growth inhibition, microtiter plate) towards L. plantarum expressing this RseP variant; footnote: low expression may contribute",[18],> 22 µM
same,"MIC50 of EntK1 (growth inhibition, microtiter plate) towards L. plantarum expressing this RseP variant",[19],0.01 µM
same,"MIC50 of EntK1 (growth inhibition, microtiter plate) towards L. plantarum expressing this RseP variant",[20],> 22 µM
same,"MIC50 of EntK1 (growth inhibition, microtiter plate) towards L. plantarum expressing this RseP variant",[21],2.7 µM
same,"MIC50 of EntK1 (growth inhibition, microtiter plate) towards L. plantarum expressing this RseP variant",[22],> 22 µM
same,"MIC50 of EntK1 (growth inhibition, microtiter plate) towards L. plantarum expressing this RseP variant",[23],4 nM
same,"MIC50 of EntK1 (growth inhibition, microtiter plate) towards L. plantarum expressing this RseP",[24],0.04 µM
same,"MIC50 of EntK1 (growth inhibition, microtiter plate) towards L. plantarum expressing this RseP",[25],0.09 µM
same,"MIC50 of EntK1 (growth inhibition, microtiter plate) towards L. plantarum expressing this RseP; footnote: low expression may contribute",[26],> 22 µM
same,"MIC50 of EntK1 (growth inhibition, microtiter plate) towards L. plantarum expressing this RseP; footnote: low expression may contribute",[27],> 22 µM
same,"MIC50 of EntK1 (growth inhibition, microtiter plate) towards L. plantarum expressing this RseP",[28],> 22 µM
same,"MIC50 of EntK1 (growth inhibition, microtiter plate) towards L. plantarum expressing this RseP",[29],0.17 µM
same,"MIC50 of EntK1 (growth inhibition, microtiter plate) towards L. plantarum expressing this RseP",[30],0.01 µM
